Laboratory results as given in paper PMC3505484.

Target: IL-1 receptor on human melanoma A375.S2 cells (human (endogenous in A375.S2)) (UniProt P14778)
Sequence of UniProt P14778 (P14778 18-569): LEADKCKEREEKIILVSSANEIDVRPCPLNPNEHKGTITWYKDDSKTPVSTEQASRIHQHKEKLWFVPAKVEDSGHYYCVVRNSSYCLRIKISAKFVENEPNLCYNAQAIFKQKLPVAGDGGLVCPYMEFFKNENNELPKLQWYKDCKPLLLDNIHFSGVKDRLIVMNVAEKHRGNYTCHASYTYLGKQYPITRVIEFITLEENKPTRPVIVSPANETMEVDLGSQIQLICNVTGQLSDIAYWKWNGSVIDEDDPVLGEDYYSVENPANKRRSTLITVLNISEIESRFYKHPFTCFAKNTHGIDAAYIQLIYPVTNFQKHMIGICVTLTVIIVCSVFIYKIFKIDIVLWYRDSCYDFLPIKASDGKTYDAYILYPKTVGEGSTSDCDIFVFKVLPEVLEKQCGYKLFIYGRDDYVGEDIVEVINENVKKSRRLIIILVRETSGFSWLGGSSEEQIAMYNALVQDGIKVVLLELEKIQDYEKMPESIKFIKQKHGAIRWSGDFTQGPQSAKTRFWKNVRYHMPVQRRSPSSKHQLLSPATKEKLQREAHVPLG

input giving the 50% level of inhibition of the cytolytic activity of 1 ng/ml (0.06 nM) IL-1β to A375.S2 cells (MTT, 72 h); the pair blocked is IL-1β and the IL-1 receptor: 2 nM | input giving the 100% level of inhibition of the cytolytic activity of 1 ng/ml (0.06 nM) IL-1β to A375.S2 cells (MTT, 72 h); the pair blocked is IL-1β and the IL-1 receptor: 32 nM
Substance: IL-1ra-HSA fusion protein (human serum albumin fused to the carboxyl terminal of human IL-1ra) (from UniProt P02768 25-609)
